From patent publication US9902783B2, “Antibodies and pharmaceutical compositions containing same useful for inhibiting activity of metalloproteins” (Yeda Research and Development Co. Ltd., priority 2007, dated 2018)

Legend:
[1] = target: T1, Heme group within Myoglobin (Homo sapiens, UniProt P02144); assay: cross reactivity, competitive ELISA and immuno affinity assay, Myoglobin; type: binding
T1 sequence (P02144 1-154): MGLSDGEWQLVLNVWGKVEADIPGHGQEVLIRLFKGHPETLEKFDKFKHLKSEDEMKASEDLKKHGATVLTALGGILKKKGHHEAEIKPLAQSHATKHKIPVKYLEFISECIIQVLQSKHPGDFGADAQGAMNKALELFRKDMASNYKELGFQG
From the text: The selectivity of anti CoTCPP and anti Imisdp was further challenged, by testing their cross reactivity with non related zinc dependent enzymes—Carbonic Anhydrase (CA) and brockii alcohol dehydrogenase (TbADH). Similar to active MMPs CA contains a zinc ion that is tetrahedraly coordinated to three histidine residues and a water molecule, TbADH contains a catalytic zinc ion that is tetraheadrally coordinated to four different amino acid residues, histidine, cysteine, aspartate and glutamate. […] Anti CoTCPP mAb was also tested for its cross reactivity with related physiological porphyrins such as the Heme group within Myoglobin and Hemoglobin and vitamin.

TACE = TACE (Homo sapiens, UniProt P78536); assay: immuno affinity binding assay, TACE; settings: purified enzyme
Protocol: MAbs (10 μg) were incubated with anti mouse IgG Agarose beads (Sigma) overnight at 4° C. in PBS. After washing unbound antibody, purified Pro-MMP-2, Pro-MMP-9 MMP-2 catalytic domain, MT1 catalytic domain or TACE (2 μg), were added following 2 h incubation at RT. The beads were collected by centrifugation and washed three times with PBS. The proteins that remained bound to the beads were eluted with SDS sample buffer, fractionated by SDS-PAGE, and detected by staining with Coomassie blue.

MMP-7 (matrilysin) = target: T2, MMP-7 (matrilysin) (Homo sapiens, UniProt P09237); assay: inhibition assay with fluorogenic peptide substrate, MMP-7; type: biochemical; settings: mAb concentrations of up to 30 μM
T2 sequence (P09237 95-267): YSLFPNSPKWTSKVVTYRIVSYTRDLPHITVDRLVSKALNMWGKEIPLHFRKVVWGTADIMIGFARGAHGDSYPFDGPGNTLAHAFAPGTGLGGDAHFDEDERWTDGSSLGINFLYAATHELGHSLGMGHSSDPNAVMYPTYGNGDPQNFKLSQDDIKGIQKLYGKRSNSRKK
Protocol: To explore the selectivity of 6C6, its reactivity was tested toward different matrix metalloproteinase subgroups including matrilysin (MMP7), membrane type MMP (MT1-MMP) and related disintegrin (ADAMs) tumor necrosis factor-α-converting enzyme (TACE). The core structures of these enzymes, are highly similar, varying mostly within the peripheral loops. Specifically the zinc-histidine scaffold is well conserved, showing a consensus helix followed by a loop that serves as a scaffold for the three histidine residues that coordinate the catalytic zinc ion (FIG. 13).
Similar inhibition assays were performed with appropriate flourogenic peptide substrates. […] Sequence variations, mostly within the peripheral loops dictate differences in the extent of exposure of the zinc-histidine motif, in the shape of the active site and its surface electrostatic may account for this selective inhibitory pattern.

Pro-MMP-2 = target: T3, Pro-MMP-2 (Homo sapiens, UniProt P08253); type: binding
T3 sequence (P08253 30-660 limits assumed): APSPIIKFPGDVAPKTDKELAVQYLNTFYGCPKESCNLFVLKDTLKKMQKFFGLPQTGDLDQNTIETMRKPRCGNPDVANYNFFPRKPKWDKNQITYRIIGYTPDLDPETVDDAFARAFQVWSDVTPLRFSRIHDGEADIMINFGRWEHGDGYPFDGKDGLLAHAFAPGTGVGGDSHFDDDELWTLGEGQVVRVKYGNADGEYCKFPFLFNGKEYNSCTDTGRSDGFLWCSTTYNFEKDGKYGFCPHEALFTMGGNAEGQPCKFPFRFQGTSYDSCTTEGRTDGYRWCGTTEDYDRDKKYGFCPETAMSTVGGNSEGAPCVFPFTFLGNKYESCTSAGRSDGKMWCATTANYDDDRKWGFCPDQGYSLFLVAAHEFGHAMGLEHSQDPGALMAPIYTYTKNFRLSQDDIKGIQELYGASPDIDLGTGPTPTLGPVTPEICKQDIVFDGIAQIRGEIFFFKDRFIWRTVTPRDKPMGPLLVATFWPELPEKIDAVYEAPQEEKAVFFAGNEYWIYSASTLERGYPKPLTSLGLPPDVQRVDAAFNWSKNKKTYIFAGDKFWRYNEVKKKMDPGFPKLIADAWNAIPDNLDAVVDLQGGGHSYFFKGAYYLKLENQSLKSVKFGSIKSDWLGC

MMP9 = MMP9 (Homo sapiens, UniProt P14780); assay: cleavage of mAb by MMP-9 on overnight incubation; settings: overnight incubations with 30 μM MMP9
DSS-induced colitis = assay: DSS induced acute colitis in mice; type: in vivo, C57BL/6 mice; settings: for reduction in colon length: 11 days after DSS induction, versus naïve mice
Protocol: FIGS. 15A-15C are graphs illustrating the effect of 6C6 treatment on the various manifestations of acute DSS colitis in C57BL/6 mice. Disease was induced by 2% DSS for 5 days. 6C6 treatment, 5 or 1.5 mg/kg mouse, was administered by daily i.p. injection starting from day 0. FIG. 15A: Clinical score was evaluated by daily monitoring of DAI (which is the combined score of body weight, rectal bleeding and stool consistency, on a scale of 0-4). Data are expressed as the dot distribution of a mean for each animal of days 6 to 10. FIG. 15B: Colon length. FIG. 15C: Mortality. The data presented are the combined results of two experiments, with a total of 15 mice per group.*, significant effect over colitis-untreated mice (p<0.05).
To explore the inhibitory activity of 6C6, the ability of mAb treatment to ameliorate DSS induced acute colitis was examined Specifically, 2% DSS was provided to the highly susceptible mouse strain C57BL/6 for five days. 6C6 treatment was given daily by intraperitoneal injections of 1.5 or 5 […], starting at the day of induction. Mice exposed to 2% DSS developed symptoms of acute colitis, with diarrhea, rectal bleeding and severe weight loss.

TACE, sequence (P78536 215-824, species assumed): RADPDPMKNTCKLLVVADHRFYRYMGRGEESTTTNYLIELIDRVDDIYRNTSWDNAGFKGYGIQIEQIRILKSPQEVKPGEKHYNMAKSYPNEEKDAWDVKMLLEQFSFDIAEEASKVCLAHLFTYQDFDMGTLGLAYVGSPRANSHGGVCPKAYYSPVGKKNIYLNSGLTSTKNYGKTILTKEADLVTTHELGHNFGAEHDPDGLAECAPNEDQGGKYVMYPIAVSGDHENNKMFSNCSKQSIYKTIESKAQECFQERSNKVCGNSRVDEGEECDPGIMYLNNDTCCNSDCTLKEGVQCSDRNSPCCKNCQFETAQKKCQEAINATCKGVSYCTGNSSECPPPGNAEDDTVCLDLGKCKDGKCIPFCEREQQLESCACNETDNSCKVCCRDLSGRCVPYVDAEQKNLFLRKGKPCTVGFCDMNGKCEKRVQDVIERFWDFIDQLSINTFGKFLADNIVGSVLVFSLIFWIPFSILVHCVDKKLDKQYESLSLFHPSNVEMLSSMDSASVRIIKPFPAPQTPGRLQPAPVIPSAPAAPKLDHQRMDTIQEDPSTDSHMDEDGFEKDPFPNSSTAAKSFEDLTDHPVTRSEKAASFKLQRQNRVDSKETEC
MMP9, sequence (P14780 94-707): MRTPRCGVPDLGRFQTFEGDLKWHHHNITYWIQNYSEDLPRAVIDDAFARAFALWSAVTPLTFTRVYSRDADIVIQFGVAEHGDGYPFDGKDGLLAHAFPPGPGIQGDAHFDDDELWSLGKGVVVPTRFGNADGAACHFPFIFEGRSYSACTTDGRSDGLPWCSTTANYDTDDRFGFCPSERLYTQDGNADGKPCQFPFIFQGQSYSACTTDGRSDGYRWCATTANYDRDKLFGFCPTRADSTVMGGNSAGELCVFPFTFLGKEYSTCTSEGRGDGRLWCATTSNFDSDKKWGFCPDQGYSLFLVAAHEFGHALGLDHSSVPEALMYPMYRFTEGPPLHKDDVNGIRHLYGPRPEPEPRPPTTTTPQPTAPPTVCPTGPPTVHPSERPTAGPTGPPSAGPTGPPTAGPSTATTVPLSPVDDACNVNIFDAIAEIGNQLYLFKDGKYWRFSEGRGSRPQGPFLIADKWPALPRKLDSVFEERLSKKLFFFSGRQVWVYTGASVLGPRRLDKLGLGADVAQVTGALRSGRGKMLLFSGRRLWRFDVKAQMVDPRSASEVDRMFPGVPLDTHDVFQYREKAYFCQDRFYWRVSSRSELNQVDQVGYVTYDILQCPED

B1: 13E11: monoclonal antibody, IgG2b, raised against the hapten CoTCPP (antibody, V domains shown)
VH: EGGGLVQPGGSRKLSCAASGFTFTSFGMHWVRQAPEKGLEWVAYISSGNEIIYYADTVKGRFTISRDNPKNTLFLQMTSLRSEDTAMYYCARNYYRYGFYVMDYWGQG
VL: EIVVTQSPAILSASPGEKVTMTCRASSSVSYMHWYQQKPGSSPKPWIYATSNELASGVPARFSGSGSGTSYSLTISRVEAEDAATYYCQQWISNPLTFGAG
modifications: 13E11 mAb heavy chain; 13E11 mAb light chain
notes: monoclonal antibody, IgG2b, raised against the hapten CoTCPP
cross reactivity with Myoglobin [1]: No cross was detected
binding to TACE (TACE): no binding was detected

B2: 6C6: monoclonal antibody, IgG2a, raised against the hapten Imisdp; MMP-2 and MMP-9 inhibitory; SEQ ID NO: 1 (protein)
chain: CMETTQTPLSLPVSLGDQASISCRSSQSIVHSNGNTFLEWYLQKPGQSPKLLIYKVSNCRFSGVPDRFSGSGSGTDFTLKISRVEAEDLGVYYCFQASHVPPTFGGG
modifications: 6c6 mAb light chain
inhibition of MMP-7 (MMP-7 (matrilysin)): neither MMP-7 nor TACE were inhibited to any measurable extent
binding to Pro-MMP-2 (Pro-MMP-2): did not bind
cleavage of mAb by MMP-9 (MMP9): not cleaved
reduction in colon length (DSS-induced colitis; 1.5 mg/kg mouse daily i.p.): 22%
reduction in colon length (DSS-induced colitis; 5 mg/kg mouse daily i.p.): 16%
disease activity index (DAI) (DSS-induced colitis; 2% DSS 5 days, daily i.p. mAb from day 0, versus untreated control): decreased disease activity
mortality rate (DSS-induced colitis; 11 days after induction, 6C6 treated mice): 33%
